Values quoted from earlier work as cited in PMC5683942.

Columns and labels:
[1] = target: Histone H2A K5ac (Homo sapiens) (UniProt P0C0S8)
[2] = target: Histone H3 K14ac (Homo sapiens) (UniProt P68431)
[3] = target: Histone H4 K12ac (Homo sapiens) (UniProt P62805)
[4] = target: Histone H4 K8ac (Homo sapiens) (UniProt P62805)
[5] = target: Histone H4 K5ac (Homo sapiens) (UniProt P62805)
[6] = target: Histone H4 K5buK8bu (Homo sapiens) (UniProt P62805)

Kd [1] [µM]	Kd [2] [µM]	Kd [3] [µM]	Kd [4] [µM]	Kd [5] [µM]	Kd [6] [µM]	Substance
48.5	626	86.5	697	1240		BRPF1 bromodomain (from UniProt P55201)
					60	BRD9 bromodomain (from UniProt Q9H8M2)
